{
  "source": "patent US8957029",
  "about": "(MAX PLANCK GESELLSCHAFT ZUR FORDERUNG DER WISSENSCHAFTEN E V, dated 2015)",
  "target": "non-muscle actin",
  "assay": "F-actin co-sedimentation, peptide fluorescence in pellet over total, hyperbolic fit",
  "note": "No end group written: not given here. fluorescein = fluorescein tag at the N-terminus",
  "data": [
    {"binder": "fluorescein-MGVADLIKKFESISKEE (also called fluorescein conjugated Lifeact; F-Lifeact peptide)", "note": "[F-Lifeact (chemically synthesized 17aa Lifeact peptide tagged with fluorescein at its N-terminus)]", "values": [
      {"measurement": "Kd", "result": 5.4, "unit": "µM"}
    ]}
  ]
}
